The data set can be described thus: protein stability index of a GFP-peptide fusion (GPS, HEK-293T) (PSI 1-6); higher = more stable. As to conditions: c terminus: a fixed tail appended.

± gives the standard deviation.
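Note: 24-mer peptide tiles fused after GFP, lentivirally expressed, FACS-sorted into six equal bins by GFP/DsRed ratio, decoded by Illumina sequencing, PSI is the read-weighted mean bin number.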

PVRAYDFLLKFLLVGDSDVGKGEI [RAB40B]: the protein stability index was found to be 2.28 ± 0.3 (treatment: DMSO) and 2.62 ± 0.58 (treatment: MLN4924 1 uM, 8 h).

With ELNAEKFKNSLLQKELKKAQMAKA [WEE1], the protein stability index (treatment: DMSO) worked out at 4 ± 0.84 and the protein stability index (treatment: MLN4924 1 uM, 8 h) is 3.42 ± 0.4.

Regarding PEDEVIVNQYVIRPGPSASAASSA [RNF208], the protein stability index was 4.61 ± 0.12 (treatment: DMSO) and 4.62 ± 0.16 (treatment: MLN4924 1 uM, 8 h).

DFLAVLSDYPSPDISPPIFRRGEK [SLA] had a protein stability index (treatment: DMSO) of 2.63 ± 0.18 and a protein stability index (treatment: MLN4924 1 uM, 8 h) of 2.75 ± 0.51.

As to QPPPPPPPPPMQPTVPSAATSQPT [CCDC6], the protein stability index is, setting by setting: (treatment: DMSO) 5.11 ± 0.16; (treatment: MLN4924 1 uM, 8 h) 5.29 ± 0.062.

DYRQEQPETFWIQRAPQLPTWWPL [SPAG8] had a protein stability index (treatment: DMSO) of 2.48 ± 0.15 and a protein stability index (treatment: MLN4924 1 uM, 8 h) of 2.57 ± 0.19.

Turning to SIDLGTAHSAAVTASGDCYTFGSN [NEK8], the protein stability index is 3.79 ± 0.31 (treatment: DMSO) and 4.06 ± 0.35 (treatment: MLN4924 1 uM, 8 h).

On to EAGASLVDQKLELNIVPRTKVVYL [PI4K2A], for which the protein stability index is, setting by setting: (treatment: DMSO) 2.29 ± 0.26; (treatment: MLN4924 1 uM, 8 h) 2.34 ± 0.47.

Turning to SEAEEALYLIAKRNRKLKCTFSLT [SLC22A15], the protein stability index turned out to be 2.52 ± 0.15 (treatment: DMSO) and 2.56 ± 0.12 (treatment: MLN4924 1 uM, 8 h).

Consider TLSAELVPWLNLKKQDENEGIKVE [CEP70], for which the protein stability index runs as follows: (treatment: DMSO) 4.33 ± 0.057; (treatment: MLN4924 1 uM, 8 h) 4.22 ± 0.098.

Turning to RQVWLLFEYPESSGPARVIAIVSV [KCNA1], the protein stability index runs as follows: (treatment: DMSO) 3.25 ± 0.45; (treatment: MLN4924 1 uM, 8 h) 2.64 ± 0.48.

For the sequence CHQMGVVHRDLKPENLLLASKCKG [CAMK2B], the protein stability index reads like this: (treatment: DMSO) 3.7 ± 0.16; (treatment: MLN4924 1 uM, 8 h) 3.84 ± 0.39.

For the sequence RVRPLARVTSLANLISPVRNGAVR [NET1], the protein stability index turned out to be 3.12 ± 0.17 (treatment: DMSO) and 3.2 ± 0.41 (treatment: MLN4924 1 uM, 8 h).

With ELEIELQSQLSMKAGLENSLAETE [KRT15], the protein stability index reads like this: (treatment: DMSO) 4.77 ± 0.33; (treatment: MLN4924 1 uM, 8 h) 4.75 ± 0.25.

For KMGLQERSETFLEVWGNALLRPPV [DNAAF3], the protein stability index reads like this: (treatment: DMSO) 2.52 ± 0.55; (treatment: MLN4924 1 uM, 8 h) 2.49 ± 0.34.

Take EDGSVELESQVQKDGVADSTVISS [C18orf25]: the protein stability index is, setting by setting: (treatment: DMSO) 5.5 ± 0.2; (treatment: MLN4924 1 uM, 8 h) 5.42 ± 0.28.

With TMEYSMVGRTVLDMLIREVVEKRL [RSPH3], the protein stability index is, setting by setting: (treatment: DMSO) 2.68 ± 0.54; (treatment: MLN4924 1 uM, 8 h) 2.64 ± 0.3.

In the case of INQSFTGAERKAALCELLEKETQI [IQUB], the protein stability index runs as follows: (treatment: DMSO) 4.38 ± 0.23; (treatment: MLN4924 1 uM, 8 h) 4.01 ± 0.19.

Take NGEYTLMPSPTDVVLPGAVSLRYS [ADAMTS4]: the protein stability index turned out to be 3.23 ± 0.34 (treatment: DMSO) and 3.28 ± 0.41 (treatment: MLN4924 1 uM, 8 h).

KALEILRKDFSELRSAGVEQLMYI [FAM50A]: the protein stability index by setting is: (treatment: DMSO) 2.55 ± 0.31; (treatment: MLN4924 1 uM, 8 h) 2.38 ± 0.49.

For KKLTGGANWQPKVAPATWSAGVPP [SNAP91], the protein stability index is, setting by setting: (treatment: DMSO) 3.27 ± 0.18; (treatment: MLN4924 1 uM, 8 h) 3.34 ± 0.14.

On to MAQSRDGGNPFAEPSELDNPFQDP [SCAMP3], for which the protein stability index is 5.19 ± 0.17 (treatment: DMSO) and 5.19 ± 0.23 (treatment: MLN4924 1 uM, 8 h).

Regarding LRLENNHCHIEESEHVLKKAHKYS [VPS39], the protein stability index was determined as 2.87 ± 0.37 (treatment: DMSO) and 3.31 ± 0.45 (treatment: MLN4924 1 uM, 8 h).

As to LRFFKEKDGKAFHPTYEEKLKLVA [ACBD3], the protein stability index (treatment: DMSO) turned out to be 2.53 ± 0.26 and the protein stability index (treatment: MLN4924 1 uM, 8 h) is 2.5 ± 0.55.

Regarding PGRPRTDGENVFTGQSKIYSYMSP [KMT5A], the protein stability index reads like this: (treatment: DMSO) 3.4 ± 0.39; (treatment: MLN4924 1 uM, 8 h) 3.58 ± 0.23.

As for SAPDTMKRYSMYLTPKGGVRTSYQ [TRIM29], the protein stability index runs as follows: (treatment: DMSO) 2.94 ± 0.21; (treatment: MLN4924 1 uM, 8 h) 3.05 ± 0.16.

Take CRANRNCPIDQHHRNQCQYCRLKK [NR2F2]: the protein stability index by setting is: (treatment: DMSO) 4.2 ± 0.044; (treatment: MLN4924 1 uM, 8 h) 4.39 ± 0.14.

In turn, QNRVFAYLCKRVPHTVLDRQLLCL [CEP70] returned a protein stability index (treatment: DMSO) of 2.46 ± 0.76 and a protein stability index (treatment: MLN4924 1 uM, 8 h) of 2.46 ± 0.59.

For IFQIGVLGFGPTYVVLAYTLPPAS [SOAT1], the protein stability index is 2.97 ± 0.27 (treatment: DMSO) and 3.23 ± 0.68 (treatment: MLN4924 1 uM, 8 h).

In the case of IPTVKPLKPRPEPPKKPSNWRRKH [ZC2HC1A], the protein stability index is 4.2 ± 0.24 (treatment: DMSO) and 4.24 ± 0.11 (treatment: MLN4924 1 uM, 8 h).

In the case of CEDQKQIKKPESFSKQIVLRGKSI [NEUROD6], the protein stability index amounted to 4.7 ± 0.21 (treatment: DMSO) and 4.61 ± 0.21 (treatment: MLN4924 1 uM, 8 h).

Turning to VRGLLASLFAFKSFRENWQRAWVR [C2CD2L], the protein stability index runs as follows: (treatment: DMSO) 2.3 ± 0.59; (treatment: MLN4924 1 uM, 8 h) 2.61 ± 0.28.

In the case of PHLMPSNCGLEEKIANLGSCNDSK [S100A14], the protein stability index by setting is: (treatment: DMSO) 2.61 ± 0.9; (treatment: MLN4924 1 uM, 8 h) 1.66 ± 0.27.

For the sequence YLRKGRGETRICKIYDSPCLPEAE [RAD51], the protein stability index reads like this: (treatment: DMSO) 3.65 ± 0.22; (treatment: MLN4924 1 uM, 8 h) 3.83 ± 0.28.

Turning to DKSPSTVRDQGPSIPLTPGDTPIR [FBF1], the protein stability index runs as follows: (treatment: DMSO) 5.08 ± 0.18; (treatment: MLN4924 1 uM, 8 h) 5.26 ± 0.18.

Take DLPWFRTLSWYFLLCVNYFFYGET [CDS2]: the protein stability index is 3.95 ± 0.26 (treatment: DMSO) and 3.23 ± 0.97 (treatment: MLN4924 1 uM, 8 h).

The values above are taken from the supplement of paper PMC10567573.
